The values below come from the DeepSol protein solubility set.

The nature of the data set: soluble on expression in E. coli; label from the status in PepcDB or PDB records.
Take “MAKVCYFTGRKTSSGNNRSHAMNSTKRTVKPNLQKVRVLIDGKPKKVWVSTRALKSGKIERVLEHHHHHH”: the “soluble on expression in E. coli” value is reported as “not soluble”.

In the case of “LIELIQYTPTTDTVRPEPILIVPAWIMKYYILDLSPENSMVKFLVDQGYTVFMISWRNPSAEDRDLGLDDYRKMGVVDAIGAVQGIVPDQKIHGVGYCLGGTLLSISAATMGRDGGDPFASLSYLASQIDFTEPGELQLFINESQLTFLEDMMWDHGYLDTTQMSGAFQMIGSADLVWSRSLHSYLMGDEPAMFDLLAWNADGTRMPYRMHSEYLRSLYLNNELTEGAFVVEGRPISVTDIRVPVFSVGTVKDHVAPWPSVYKMHLYLDTDLTFVLTSGGHN”, the “soluble on expression in E. coli” value is “not soluble”.

For the sequence “MAHHHHHHMPELSYMFSSVSEPRALGAADDGQVITSHSNSSNNNHNNFYPLYSASGSTKVSNYGGHFENNGNNIISMNNKSDVNANTCGDSGEKGNEGEKWIWVLDPLTRKLRVPLSQLVHTQATATTGTVPSLCISFLEGRCRHQWCRQAHVLPSAIPQLRHEALHAPTCCRLHDDPHDTSVLTSRFKYIRVV”, the “soluble on expression in E. coli” value is given as “not soluble”.

Take “MSWMQNLKNYQHLRDPSEYMSQVYGDPLAYLQETTKFVTEREYYEDFGYGECFNSTESEVQCELITGEEDPKLLPYDKRLAWHFKEFCYKTSAHGIPMIGEAPLEHHHHHH”: the “soluble on expression in E. coli” value was “soluble”.

As for “MAELHIIGQIIGATGFPQNSLFCKWGVHTGGAWRLLSGLREGQTQVDMPQTGDMAYWSHPIDLHYTTKGLQGWPKLHLQVWHQDSFGRCQLYGYGYIHVPSSPGQHRLQCVTWRPLGSWQDQLSEMFVGGGPQLRSPDLIYSGADRYRLHTVGMGTVELELCIILRHFDRYGVES”, the “soluble on expression in E. coli” value was “not soluble”.

On to “VLSAIGIVPSAPVLVPELAGAAAAELADLGAAVIAAASLLPKSWIAVGTGRADDVVRPTDVGTFAGFGADVRVGLAPQDGDGVAVPVELPLCALLTAWVRGQARPEARAQVHVYASDHGSDAAVARGRQLRADIDREPDPIGVLVVADGLNTLTPRAPGGYDPDGAGMQRALDDALASGDLAVLTRLPAQVLGRVAFQVLAGLAEPGPRSAKEFYRGAPHGVGYFAGVWQP”, for which the “soluble on expression in E. coli” value is “not soluble”.

As for “MGSDKIHHHHHHMKSIKAADLHAAVRDMIMDANRVLGKDVYNAFQTCMQQETTDSGKEVLRQLLENADLAAQSGLALCQDTGVAVFFVEMGEEVRMEGGGLKETLNAAMVEAYNKAFLRKSMCHPLTRKNTGDNTPAVIHVELVPGDTLKVRYMAKGGGSENMSRCTMLTPAQGWQGIKDFVVRRMAEAGPNPCPPTIVGVGIGGTFDLAPSLAKGALFRRVDDVHPDPEIAAMEKELLDEINALGIGPMGLGGKTTCLAVKIAMHPCHIASLPLAVNVQCHSSRHKEVVF”, the “soluble on expression in E. coli” value is given as “not soluble”.

Turning to “MSLWKNTIHSISSNLSLKNPATKDELTDIQKCLHVELPNDLYQLLQETNGIEGEYGDFIWSASKIKTENMSMRNIVDFKDLYMPFDCLLFFADGGNGDLFGYSILNGKVQRDDIYVWNHENDSRTWVALSLKTFMEWWESGKITIEGHHHHHH”, the “soluble on expression in E. coli” value is “soluble”.

Regarding “QVTVQSSPNFTQHVREQSLVTDQLSRRLIRTYQLYSRTSGKHVQVLANKRINAMAEDGDPFAKLIVETDTFGSRVRVRGAETGLYICMNKKGKLIAKSNGKGKDCVFTEIVLENNYTALQNAKYEGWYMAFTRKGRPRKGSKTRQHQREVHFMKRLPRGHHTTE”, the “soluble on expression in E. coli” value is recorded as “soluble”.

Take “MKILNRLATDVGLMLRRPPRQQYAALCYRLSKSNPEPEVLLLTSRDTGRWVIPKGWPMANKKAHAVAEQEAYEEAGVKGTVEKAPFGYYEYEKKLNSGINVPCKVQVHLLEVSEMRDSFPEKDARRLEWVSPREAGKRVNEPELKALMLAFDKRMAHSQ”: the “soluble on expression in E. coli” value is “not soluble”.

With “MGSDKIHHHHHHMTARQDLVDLIAAIDAGSGPARNPYWRDLAVDDSVARKAAVLMLFGALDNVPAASGKPLAPADLDVLLLERAHTLDDHPGQVAFPGGGIDPGETPIEAALREAEEETGLDSAGVEVLGAMPQLALPRGNFLVTPVLAWWHSPSPVRVVDYGESAQVFRVPVRDLLDPDNRVMATVSRAGQSFLSPAFVVNKVVVWGFTGMILNELFDHLGWSVPWDRSRLHQIDV”, the “soluble on expression in E. coli” value is “not soluble”.

As to “MILDTSVIIRIFRDRNFFEVLKERIDDDVKITSVTAYELQRGAVYIMLKHGRDYEFKLIRDFLEEVEILSFTPKDSEISAMIWAKLREKGYELNDADIMISAVSIRENEKLVTLDRDFEYISRVSELDVDILEEEL”, the “soluble on expression in E. coli” value was “not soluble”.

“MSLKVLAITGYKPFELGIFKQDDKALYYIKKAIKNRLIAFLDEGLEWILISGQLGVELWAAEAAYDLQEEYPDLKVAVITPFYEQEKNWKEPNKEQYEAVLAQADYEASLTHRPYESPLQFKQKNQFFIDKSDGLLLLYDPEKEGSPKYMLGTAEKRREQDGYPIYFITMDDLRVTVEEDSYEGHHHHHH”: the “soluble on expression in E. coli” value is “soluble”.

With “MGATMKPSNKESVQDTVARLRENRNQQQSKVGKNATHSSKEQTPLDTPTRSKASKNAKAVSAAERKTEANKIIKHLLLGELTQGQALKSLRINILGLKQDVFARLVDVSRKTLSDIENDRGSYNTEILNKVFKPFSLKIGLLPSSPDALKSLLMDGEDG”, the “soluble on expression in E. coli” value is recorded as “soluble”.

Consider “MQQTTQIQPSFTLKTREGGVASADERADEVVIGVGPAFDKHQHHTLIDMPHGAILKELIAGVEEEGLHARVVRILRTSDVSFMAWDAANLSGSGIGIGIQSKGTTVIHQRDLLPLSNLELFSQAPLLTLETYRQIGKNAARYARKESPSPVPVVNDQMVRPKFMAKAALFHIKETKHVVQDAEPVTLHIDLVRE”, for which the “soluble on expression in E. coli” value is given as “soluble”.

Turning to “MGSDKIHHHHHHMAKNKTAYVCSECGQDFPRWQGQCNACGEWNTISEVRLAPAKSSAGSVAGYAGAVGGGSKKLSEVEEFEAKKLLTGIGELDRVLCGGLTTGSVNIISGDPGAGKTTILSDLVSRMSQLMPSLYCTAEESLSQFKNRVNRLRLDCNEENLYLMAETNVEAIIAELEAKQVKFAVIDSIQAVVTDLANGSPGSPSQVKGSAQALTQYCKQNNVTMFLVAHVNKNNETAGPQTLIHIVDCLTHLECNDGQVRTLRANKNRFGDVDTVGIFRMTERGMLSVDNPSEIFLSGSTTESPGAAITCIRKGNRNLLLEIQCLTTEAEGEFPQRVCVGLNMNRIKMLTGILRKHTRTKIYHDTYFNLVGGLKIDESETCIDLALVAALLSSLNEFVVPRTTCIMGELSLNGDVRPIDSGVPRVKEAVQHGFTEIFIPFRNYHKSMEGLGAKINPIKTIHELLELIC”, the “soluble on expression in E. coli” value was “not soluble”.

Consider “MSENSNQFLDALKQMQGVEVGDIVDVEVLDVEDGQIDVGVENAGVEGVITRREYTSDRNADLRDLVKPGDKFKALVLRRAGGDKENGEFFFSVTRLKEREAFDKLQKDFEEGNAIEGTVTSSVRGGLLVDVGTRGFLPASLISNRYVSDLKPYIGKTMKLKITEIDPNKNRLILSHKDLVEEEREEAFDKVASQLVVGDVVEGKVSRLTNFGSFIDVGGVDGLVHISEISYKHVDKPSDVLKVGQDVKVKVIGIDNDRHRISLSIKQTEPSPFEQATADLNEGDIFEGEVKSLTNFGAFVEVADGIQGLVHVSEISNKHVDKPSDVLKVGQTVKVKVLNIDPNDRRISLSIKAADSNSSSSDNHNSRPRRSRNENTVNKKYMSDNDNGFALGDIIGDQLKDRKLEHHHHHH”, for which the “soluble on expression in E. coli” value is reported as “soluble”.

On to “MGSDKIHHHHHHMSLSHNRHKKLIEMVQTDGEVRIRDLMVHFNVSEETARRDIKQLEQDGLVVRVHGGAVATQQPKLLTISSRAISELAEKNVIAEIALGLLKPGQNLFFGGGSTVLALARRISMLPEMRIVTNMVDTAIAASEGRRHRVVLLGGDFNGDYRVVTGFAALRTLREQQIDIAFIGVNAVHPTLGVFDHEQGGQELAATLAEQARKITVLADHSKFGRSARYRTLPHSAIATIITDQQPEPHVLTAIEGAGADVLYPPQNPS”, for which the “soluble on expression in E. coli” value is given as “not soluble”.

For the sequence “MLNDVYNKRIIELAGNIPRIGRLERPDASATAHSKLCGSTVTIDLKMDGDTVTDFAHIVKACALGQASSSIMASHVVGSTASELKALRETVRKMLKENGAPPDGKWADIAMLEPVRDYKARHASTLLTFDAVVDAIGQIEAQNDGAKATA”, the “soluble on expression in E. coli” value is on record as “not soluble”.
